Laboratory results published in article PMC2990340.

Target: T1, CsdE-myc-His6 (E. coli K12 MG1655), P0AGF2
T1 chain: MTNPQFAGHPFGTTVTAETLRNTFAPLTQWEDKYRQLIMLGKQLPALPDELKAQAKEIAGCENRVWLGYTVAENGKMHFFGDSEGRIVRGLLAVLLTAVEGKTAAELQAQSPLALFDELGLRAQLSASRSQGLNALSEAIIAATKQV
Assay: affinity purification with mass spectrometry
Settings: remark: other sources report otherwise

stoichiometry N: 2
B1: CsdE-myc-His6, P0AGF2 1-147 (natural protein)
chain: MTNPQFAGHPFGTTVTAETLRNTFAPLTQWEDKYRQLIMLGKQLPALPDELKAQAKEIAGCENRVWLGYTVAENGKMHFFGDSEGRIVRGLLAVLLTAVEGKTAAELQAQSPLALFDELGLRAQLSASRSQGLNALSEAIIAATKQV
